System: peptide library, one residue held at a place counted from the S/T acceptor
Experiment: relative phosphorylation of the sub-library (ratio to the mean residue at this position); higher = residue favoured
Outline: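 Relative sub-library phosphorylation is a ratio to the mean residue at the same position. Purified recombinant kinases were incubated under kinase-specific conditions with biotinylated degenerate peptide sub-libraries, each fixing one residue at one position around a central Ser/Thr, using 50 μM peptide and 50 μM ATP spiked with γ-32P-ATP for 90 min. Spots captured on streptavidin membranes were phosphorimaged and quantified by densitometry.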

PRKCZ, construct: Full length, human, sequence (Q05513 whole entry, looked up): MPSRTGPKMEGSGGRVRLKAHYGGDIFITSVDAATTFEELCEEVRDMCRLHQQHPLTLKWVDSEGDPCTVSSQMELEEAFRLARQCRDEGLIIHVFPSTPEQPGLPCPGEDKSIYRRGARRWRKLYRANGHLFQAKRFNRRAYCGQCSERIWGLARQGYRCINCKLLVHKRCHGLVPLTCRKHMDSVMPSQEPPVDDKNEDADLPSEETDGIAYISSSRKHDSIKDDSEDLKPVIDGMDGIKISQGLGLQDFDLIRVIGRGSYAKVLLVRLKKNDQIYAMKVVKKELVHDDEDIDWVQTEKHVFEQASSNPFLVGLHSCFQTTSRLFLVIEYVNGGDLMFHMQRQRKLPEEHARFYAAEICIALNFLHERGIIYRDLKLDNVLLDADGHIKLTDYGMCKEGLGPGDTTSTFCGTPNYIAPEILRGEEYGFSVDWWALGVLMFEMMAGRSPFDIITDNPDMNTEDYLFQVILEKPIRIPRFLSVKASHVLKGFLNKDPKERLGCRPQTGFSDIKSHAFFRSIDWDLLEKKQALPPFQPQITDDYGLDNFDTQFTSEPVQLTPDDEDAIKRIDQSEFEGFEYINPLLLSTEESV

PRKCZ, construct: Full length, human (from UniProt Q05513)
relative phosphorylation
Conditions	at +1	at +2	at +3	at +4	at -1	at -2	at -3	at -4	at -5
A fixed	0.673	0.759	0.778	1	1.16	0.809	0.78	1.13	1.32
D fixed	0.193	0.206	0.324	0.596	0.387	0.399	0.425	0.666	0.79
E fixed	0.293	0.203	0.319	0.563	0.375	0.355	0.437	0.661	0.732
F fixed	1.37	0.662	0.927	0.827	0.468	1	0.842	0.827	1.23
G fixed	1.1	0.52	1.07	1.07	1.21	1.45	1.28	1.57	1.52
H fixed	0.752	1.35	1.33	1.35	1.06	1.07	1.08	1.03	1.08
I fixed	0.868	0.646	0.646	0.608	0.259	0.288	0.378	0.468	0.533
K fixed	2.46	2.13	2.15	2.05	3.12	1.18	1.91	1.29	1.15
L fixed	0.768	0.577	0.834	0.64	0.457	0.47	0.535	0.59	0.803
M fixed	1.42	0.912	0.759	0.706	0.755	0.731	0.659	0.783	0.694
N fixed	0.832	0.908	0.975	1.08	1.26	1.19	1.11	1.4	1.25
P fixed	0.344	0.512	0.706	1.17	0.986	1.16	1.1	1.45	1.12
Q fixed	1.23	0.916	0.978	1.14	1.19	0.983	1.08	1.04	0.788
R fixed	2.39	4.07	2.08	1.34	2.43	2.99	3.2	1.45	1.31
V fixed	0.844	0.682	0.671	0.703	0.406	0.342	0.415	0.483	0.607
W fixed	0.61	0.803	1.28	1.13	0.579	0.973	0.909	1.33	1.23
Y fixed	0.841	1.14	1.17	1.01	0.89	1.61	0.855	0.824	0.837
pThr fixed	0.461	0.391	0.519	0.651	0.314	0.632	0.696	0.847	0.985
pTyr fixed	0.363	0.396	0.623	0.538	0.451	0.621	0.831	0.761	0.857
